Results on 2 substances are retold here after PMC1784095.

Data set [1] concerns the target T1, ArgR (Escherichia coli K-12 W3110) (UniProt P0A6D0).
T1 sequence: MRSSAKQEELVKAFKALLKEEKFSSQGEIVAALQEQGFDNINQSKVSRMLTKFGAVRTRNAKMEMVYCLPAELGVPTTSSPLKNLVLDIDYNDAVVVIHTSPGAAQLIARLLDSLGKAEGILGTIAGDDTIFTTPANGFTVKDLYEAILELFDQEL
As to the kind of experiment: EMSA. The conditions noted are these: Crp EMSA: 10 mM Tris-HCl pH 8.0, 50 mM KCl, 1 mM EDTA, 0.1 mM DTT, 50 ug/ml BSA, 10 ug/ml poly(dI-dC), 12.5% glycerol, cAMP (20 uM in Results, 20 mM in Methods …).

In data set [2] the test system is Crp (Escherichia coli K-12 W3110). In words: EMSA. The conditions noted are these: 20 uM cAMP; apparent Kd; Crp EMSA: 10 mM Tris-HCl pH 8.0, 50 mM KCl, 1 mM EDTA, 0.1 mM DTT, 50 ug/ml BSA, 10 ug/ml poly(dI-dC), 12.5% glycerol, cAMP (20 uM in Results, 20 mM in Methods …). Background: A gel shift assay detects complexes by their altered migration in electrophoresis.

With “AATTCGGCGATGACCTGGATCAATCGTCCCGGCCTGCTTTTATCAACTGCATAATCAATCAAAATTACCGAAATTTCATGCATAATCACATAAATCACTTTTGCTTATCTTGTGTCAGATTTTTTTATCTCCTGATGGATTTTAGGCAAAAACAGTAGCATGAAACGTCATTACCAATTAAGGCAGTATAAAATGCTGGTTTTGTCGTCAGTTCAAGGCAGGATAAGGGTTAACACACCTTTATGACAGTCAGGAATTGACTGTTTCTCTAACGACTTC (double strand) [PgltB -406 to -128]”, the Kd in data set [1] was determined as 1.7 nM. Take PgltB -406 to +246: the Kd came to 35 nM in data set [2] and 1.8 nM in data set [1] (5 mM L-arginine, apparent Kd, Hill 2.0).
